Reference: the DeepSol protein solubility set

Assay: soluble on expression in E. coli; label from the status in PepcDB or PDB records

| Sequence | soluble on expression in E. coli |
| --- | --- |
| MTFYFYFVINMEKVAIYIIGDIVLAENTGKALKKWRNLFNIQQIELAKYLNVSPSVISDYEVGRRKNPGVNIIKKYVLALIEIDKEKGGQTIKALKRILDKSPSMKAILSIKEYENPITLNEFVNIIDGEIAVGDNSDTPIYGHTVVDSIKAILEMTGDDFYHLYGWTTERALIFTNVSTGRSPMVAVRVSIMKPRVVVLQGINKDKIDSLALKLAEIDNIPLITTHLDTKELIKRLNEIK | not soluble |
| MTHATVTQTVHYHNGETGGQMQADTTNEVNFDRTVTIDTVTGEITHYGDWEADGDDYFKGFDSPTFDGYFADVQHTGEVKGVDPEQGTVDDVTITYYALEHHHHHH | soluble |
| MTIDCHEDRRVLLVPHTGRPQNVASAALAAELLDDSGVGVRVLVPAEDTTVATHPVLGQFERVSHSPQATQSVDLVLVLGGDGTFLRAADLAHGADLPVLGINLGHVGFLAEWEKDSLDEAVRRVTKGSFRIEERMTLDVSVYDSNGTAIGRGWALNEVSIENSNRSGVLDATLEIDSRPVSSFGCDGIIVSTPTGSTAYAFSAGGPVLWPELDAILVVPNNAHALFTKPLVVSPRSSVAVESHPSAFPATAVMDGFRSISVPPGARVEVKRGSRSIKWVRLDDIPFTDRLVTKLRLPVEGWRGPKNMIPQINPHSALEHHHHHH | soluble |
| MTIEKIFTPQDDAFYAVITHAAGPQGALPLTPQMLMESPSGNLFGMTQNAGMGWDANKLTGKEVLIIGTQGGIRAGDGRPIALGYHTGHWEIGMQMQAAAKEITRNGGIPFAAFVSDPCDGRSQGTHGMFDSLPYRNDAAIVFRRLIRSLPTRRAVIGVATCDKGLPATMIALAAMHDLPTILVPGGATLPPTVGEDAGKVQTIGARFANHELSLQEAAELGCRACASPGGGCQFLGTAGTSQVVAEALGLALPHSALAPSGQAVWLEIARQSARAVSELDSRGITTRDILSDKAIENAMVIHAAFGGSTNLLLHIPAIAHAAGCTIPDVEHWTRINRKVPRLVSVLPNGPDYHPTVRAFLAGGVPEVMLHLRDLGLLHLDAMTVTGQTVGENLEWWQASERRARFRQCLREQDGVEPDDVILPPEKAKAKGLTSTVCFPTGNIAPEGSVIKATAIDPSVVGEDGVYHHTGRVRVFVSEAQAIKAIKREEIVQGDIMVVIGGGPSGTGMEETYQLTSALKHISWGKTVSLITDARFSGVSTGACFGHVSPEALAGGPIGKLRDNDIIEIAVDRLTLTGSVNFIGTADNPLTPEEGARELARRQTHPDLHAHDFLPDDTRLWAALQSVSGGTWKGCIYDTDKIIEVINAGKKALGI | not soluble |
| MTIHNFDLLVVGGGINGTGIARDAAGRHLSVCLCEQHDLASHTSSASTKLIHGGLRYLEYYEFALVSKALAEREILLRQAPHIVRPLHFILPHQPHLRPTWIIRAGLLLYDHLGFSRRTLPRSRRLNLAQHPAGQPLKQELHTGFMYCDAQVQDARLVVLNAMDAAQRGARILTRTRCVRTRRDGAHWLTELEDAQGRQQQIRTRAIVNAAGPWAVTFLDHIAQQPHQHTLRLVKGSHIVVPRLFEHEHAYIFQQPDRRIVFAIPYEQHFTLIGTTDVDYVADPANPHIDAAETMYLCNAVNSYFRQQITPEDVLWSYSGVRPLLNDGHNNASKVTRDYQLEILGNSAPLLNVFGGKLTTYRKLSEEAVNQLCVALDHPYRAWTANGPPLPGGEHHDIAALQNTLRQHRPWLPTATAQRLIHNYGTYAETLLGNATNLHTLGIHFGADLYQAEVDYLRTHEWACSAEDILWRRSKLGLHLDAHGTQRLEDYLRSCSRIPDHADTTTQLEHHHHHH | not soluble |
| MTIKWIDWVKQIQSIAQAGLTYSKDVYDIERFQQLRDISISMMSHYTKTDWEVVEKLFASETGYQTPKVDIRAVVFQNEKLLFVKEKSDGKWALPGGWADVGYTPTEVAAKEVFEETGYEVDHFKLLAIFDKEKHQPSPSATHVYKIFIGCEIIGGEKKTSIETEEVEFFGENELPNLSIARNTEDQIKEMFAYMKDPQKEKLID | not soluble |
| MTILFARNIEKGFGDRTLFTLPSLEIQAQDRIGIVGVNGAGKSTLLQILSKEIEADKGIVTHHSSISIIPQISEELPKVASSTAKGKWNISNISNSMSGGERMRLKIAHALEQDAGILFADEPTSHLDMFGTEQLEKALLSYKGALVLISHDREFLDNICTKIIEIEDGIIQEYKGNYSNYRKQKERERTQKQAEYEQYINEKERLEKSILQKKQRASSMTKIPTRFSSSESKLYKLSGANGQEQVSKAAKALETRLEKLEKKEKPKELSQAQFDVQYHTPIHSKVAVQFNKATKKIGDLTLFKNMNGTIAPGAKLAILGANGSGKTTLFNMLLANERGIQLSKSCKIGYFEQTLSILKTDKTILENVLEETNYTESFVRTILARLLFRREDVHKPVHVLSGGERMKVALAKVFLGNYNMLLLDEPTNYLDLATQEELESMLQEYPGTILFISHDRAFIRSVADHILQVDESEPRVFHGNYEQYTNRTADASVNVTAQELLRLQTKLTEIIGRISIPNHHDDITSLEQEYETLLVKIRKCKEAL | not soluble |
| MTINYQFGDVDAHGAMIRAQAGSLEAEHQAIISDVLTASDFWGGAGSAACQGFITQLGRNFQVIYEQANAHGQKVQAAGNNMAQTDSAVGSSWA | not soluble |
| MTIRNFAIEYDAINDRNTFSNGDTLAGRVIVEVSKQTKITSLTVQAKGKANVAWTETHGEESVTYWDKEKYFSQTQSVLPEDKADGSVTLVAGRHVFPFAFQLPNQSLPSSFKGVHGKIHYRLMAKLSRSFRAASKAEAKFTFVARADYDTSTLTTPQHGSKDKNVMFFASGNISMDIFLPKTGYQQGEGLIVNGEIVNSSTRKIVPKYIIYQKQSFFAGGQRAVHTTEILKEKGEPLVSSTRENLYKVLPLPPEISSTIHNCRILKVEYRLKVILDVSFTKNPVIKLPFIVLPLCNETPPKAIEEGLYPDLAKMKISN | soluble |
| MTISLRRTGILKFGIGLVALTIAASVQAKTLVYCSEGSPEGFNPQLFTSGTTYDASSVPIYNRLVEFKIGTTEIEPSLAERWEVSEDGKTYTFYLRKGVKWQDNKDFKPTRDFNADDVIYSFMRQKDDKNPYHKVSGGSYEYFQGMGMGDLITNVVKVDDNTVRFELTRPESPFLADLAMDFASILSAEYADNMLKAGTPEKVDLNPIGTGPFQLQQYQKDSRILYKAFPGFWGTKPKIDRLVFSITPDASVRYAKLQKNECQIMPYPNPADIARMKEDKTINLMEQPGLNVGYLSFNIEKKPLDNLKVRQALTMAVNKDAIIDAVYQGAGQAAKNLIPPTMWGYNDDVKDYAYDPAKAKELLKEAGLPDGFSIDLWAMPVQRPYNPNARRMAEMIQSDWAKIGVKAKIVTYEWGEYLKRAKDGEHETVMMGWTGDNGDPDNFFATLFSCDAAKQGSNYSKWCYKPFEDLIQPARAEADHDKRVALYKQAQVVMNEQAPALIIAHSTVYEPVRKEVKGYVVDPLGKHHFDNVSLD | not soluble |
| MTITPNKLTLKIGRAEGRPGDTVEIPVNLYGVPQKGIASGDFVVSYDPNVLEIIEIEPGELIVDPNPTKSFDTAVYPDRKMIVFLFAEDSGTGAYAITEDGVFATIVAKVKEGAPEGFSAIEISEFGAFADNDLVEVETDLINGGVLVTNKPVIEGYKVSGYILPDFSFDATVAPLVKAGFKVEIVGTELYAVTDANGYFEITGVPANASGYTLKISRATYLDRVIANVVVTGDTSVSTSQAPIMMWVGDIVKDNSINLLDVAEVIRCFNATKGSANYVEELDINRNGAINMQDIMIVHKHFGATSSDYDAQLEHHHHHHMRGSHHHHHHTDLRADKASSIELKFDRNKGEVGDILIGTVRINNIKNFAGFQVNIVYDPKVLMAVDPETGKEFTSSTFPPGRTVLKNNAYGPIQIADNDPEKGILNFALAYSYIAGYKETGVAEESGIIAKIGFKILQKKSTAVKFQDTLSMPGAISGTQLFDWDGEVITGYEVIQPDVLSLGDEPF | soluble |
| MTIYNINFGIGWASSGVEYAQAYRAKLLRRTNQDTKFVFLDFIQSENIQTLTQNIGFKDQEVIWLYQYFSDISLAPTTYTLDDIERELGHDISFRERNGKIVRLYFNGKSSFVTCYLQNEQKDIVDRAEFVINSMLVRKDFYSYTRIFSEYYAPADNKAKLYMRQFYNQDGSIAYNEYIDGDSSIYVFEDAVLYNKTEFIAYFLQRLNLTRDDIVILDRASDIGQAVLQHKGDSKVGVVIHADHYSNNMMSEQHILWNNYYEYQFSKAKYIDFFITATDIQNHMVCRQFEQYQGYRPRVYTIPVGSIDALSYPTLSRKPYAMISASRLANEKHIDWLVKAVIVAKRQVPELTFDIYGEGSEKTRLRKIIDTHRAQDYIRLLGHVKLDEIYNDYELFLSASTSEGFGLTLMEAVGSGLGMIGLNVNYGNPTFIRDGENGYLVPFDTDEDSVDDVIAKLAHAIVMYFNNGPQTPHDISYEVAQQFMTQDIILKWETLVQEVLHD | not soluble |
| MTKAFDAFERAIRDAEDLLARHDAEKTVPNGHNGEVLKRAGLVMALAAWETYVKDRLQSEIDTWLQAVEGSPLGKFVRRRLEEDLKRFFNPNDERTRRIFIDYFDVDITKDWVWENYDSSTSKKVLDSLVAKRGDAAHKANTALHASAEPHKVKRDELEKGIRFLKGLVAATEKAKITK | not soluble |
| MTKAMTAHDYLPLIEKIRKRISSWTGRFLSYCGRLQLIKSVLMSITNFWSSAFRLPGNCMKEIERLCSAFLWSGPDLKTHNAKIAWSKVCLPMCEGGLGLRPLKEINTVCGLKLIWRLLASQTSLWGQWVQTYLIRRNNFWAIKASSYQGSWMWRKLLTLRDVARSFHKKEIHNGRNTSFWYDHWSSMGTLVDVLGARGCIDLGITTTTNMENVFTTRRSRKHRGDLLVRIEAEIEAAKTRHQPDIEDIDLWKPSTGYKKTFSTRETWKLIRMAEPVCEWAKGVWFPKPHQNLLSLLGWVCTIVFQQGTECKSGTAKLTLLAFSAKTLWKQEITYSSTVTTPIKFGKL | not soluble |
| MTKCSIIIGIFLIAAINGQASKRRIQYESVSQFLFHNSKLCGDPFSDAVWLPVLDLCSIECEITSEYCVENEELTQQCKKLPEDCQALLRKAIKQIQRHIRSQKPVYL | not soluble |
| MTKMSITVNQTVLHQLVKNVDGDSIKMESVLRDELLSITPEVEQMMLQLHQSYQNKAKAFGVFQEKSIFAQHLNRLLEQEIEFLGFSQYSTKLLADELGKYNFAESGTLILCQYNFLATDYLFIALLDSRHSMLVDEHLDIRRTEYLDITQFDIAARINLTDLQVNANSNRYLTFIKGRVGRKISDFFMDFLGAEEGLNPQVQNQCLLQAVSDYCDQGELNKEQTQAVKKQVFEYCKGQLSNGNNIELRELSDSLPTLNEQPFVVFTEKQNYGLEESIPPIRSTLKSLTKFSGSGKGVTLSFDAELLNTRIQWDPMTDTLTIKGLPPNLKDQLQKALKSENLEHHHHHH | soluble |
| MTKNPRNNKPKKILDSSYKSKTIWQNYIDALFETFPQLEISEVWAKWDGGNVTKDGGDAKLTANIRTGEHFLKAREAHIVDPNSDIYNTILYPKTGADLPCFGMDLMKFSDKKVIIVFDFQHPREKYLFSVDGLPEDDGKYRFFEMGNHFSKNIFVRYCKPDEVDQYLDTFKLYLTKYKEMIDNNKPVGEDTTVYSDFDTYMTELDPVRGYMKNKFGEGRSEAFVNDFLFSYK | soluble |
| MTKRGLGKGLDALLATSSLAREKQQVASLSQSMSAEGELADLSISNLKPGIYQPRKDLSPEALEELAASIQSQGIIQPIVVRHLPTGGYEIIAGERRWRAAKQAGLKQVPCLIKQVEDRGAIAMALIENIQREDLNAMEEAQALERLQNEFNLTHQQVAEVIGKSRTTVTNLLRLNQLSDDVKRLLETKQLEMGHARALLMLEGEQQVEIAQQVAKKQLTVRQTEQLVKKCLSDPSDAKNVSEDLEIQQLSQNLSEKLAAKVSIVRTPNGKSKVTISLDEPHKLELLIAKLQN | not soluble |
